# From patent publication US8435961B2, “Methods and compositions for increasing the activity of inhibitory RNA” (Massachusetts Institute of Technology, priority 2009, dated 2013)
# B1: PARP13: PARP13 overexpressed from a pEGFP-C1 plasmid (protein)
# chain: ADPEVCCFITKILCAHGGRMALDALLQEIALSEPQLCEVLQVAGPDRFVVLETGGEAGITRSVVATTRARVCRRKYCQRPCDNLHLCKLNLLGRCNYSQSERNLCKYSHEVLSEENFKVLKNHELSGLNKEELAVLLLQSDPFFMPEICKSYKGEGRQQICNQQPPCSRLHICDHFTRGNCRFPNCLRSHNLMDRKVLAIMREHGLNPDVVQNIQDICNSKHMQKNPPGPRAPSSHRRNMAYRARSKSRDRFFQGSQEFLASASASAERSCTPSPDQISHRASLEDAPVDDLTRKFTYLGSQDRARPPSGSSKATDLGGTSQAGTSQRFLENGSQEDLLHGNPGSTYLASNSTSAPNWKSLTSWTNDQGARRKTVFSPTLPAARSSLGSLQTPEAVTTRKGTGLLSSDYRIINGKSGTQDIQPGPLFNNNADGVATDITSTRSLNYKSTSSGHREISSPRIQDAGPASRDVQATGRIADDADPRVALVNDSLSDVTSTTSSRVDDHDSEEICLDHLCKGCPLNGSCSKVHFHLPYRWQMLIGKTWTDFEHMETIEKGYCNPGIHLCSVGSYTINFRVMSCDSFPIRRLSTPSSVTKPANSVFTTKWIWYWKNESGTWIQYGEEKDKRKNSNVDSSYLESLYQSCPRGVVPFQAGSRNYELSFQGMIQTNIASKTQKDVIRRPTFVPQWYVQQMKRGPDHQPAKTSSVSLTATFRPQEDFCFLSSKKYKLSEIHHLHPEYVRVSEHFKASMKNFKIEKIKKIENSELLDKFTWKKSQMKEEGKLLFYATSRAYVESICSNNFDSFLHETHENKYGKGIYFAKDAIYSHKNCPYDAKNVVMFVAQVLVGKFTEGNITYTSPPPQFDSCVDTRSNPSVFVIFQKDQVYPQYVIEYTEDKACVIS
# Tested on: RNAi activity in 293T cells
# Assay: Modified pGL4.72[hRlucCP] vector luciferase assay of RNAi activity
# Assay type: cell-based
# Conditions: overexpression from pEGFP-C1, 10 nM vector-target RNAi, 48 hours, vs EGFP- and G3BP-overexpressing cells (FIG. 30)
# From the text: Assays for measuring RNAi activity in a cell are available in the art. For example, psiCHECK™-1, psiCHECK™-2, and pGL4.72[hRlucCP]™ vector assay systems provide methods for the measurement of RNAi activity in a cell. In these assays systems, luciferase is used a primary reporter gene and a target sequence (i.e., the target of one or more RNAi molecules) is cloned a multiple cloning region located downstream of the luciferase translational stop codon. Initiation of the RNAi process towards the target gene results in the cleavage and subsequent degradation of the fusion mRNA encoded by the vectors (i.e., upon treatment of the transfected cell with a vector-target RNAi molecule). Measurement of decreased luciferase activity in the transfected cells following treatment with the vector-target RNAi indicates the activity of RNAi in the cell. […]
# Additional experiments were performed to determine the effect of PARP13 knockdown on miRNA activity. […] In a second set of experiments, the ability of the vector-target RNAi to reduce the expression of luciferase was measured in 293T cells transfected with pGL4.72[hRlucCP]™ vector, 20 nM vector-target RNAi, and 20 nM of negative RNAi control for PARP13 siRNA (siNeg; AllStars Negative Control siRNA; Qiagen Catalog No. 1027280) or PARP13 siRNA (siPARP13; SEQ ID NO: 40) following treatment with 0 or 30 nM pateamine A for 2 hours. […]
molecule,measurement,value
B1,decrease in the level of miRNA-mediated repression compared to control cells,3 fold
